Assay results: PMC11233452

target: T1, PsrA (Pseudomonas aeruginosa PAO1) (UniProt Q9HZJ9); experiment: EMSA
T1 sequence: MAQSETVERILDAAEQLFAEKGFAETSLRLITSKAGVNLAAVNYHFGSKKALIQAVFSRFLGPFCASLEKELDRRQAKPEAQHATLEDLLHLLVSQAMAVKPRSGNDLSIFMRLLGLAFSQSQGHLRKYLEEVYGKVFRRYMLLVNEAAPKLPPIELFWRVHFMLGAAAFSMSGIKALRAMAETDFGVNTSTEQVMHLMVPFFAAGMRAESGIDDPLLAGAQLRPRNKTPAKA

Row | Sequence | binding
1 | CGCTTCCCTTGATCGGGTCAGGTTGCCGCTACTGTGGAAGAAGCGTCGAGGACTCGATAGATAGCGCCCGAGTGTTTCAACTTGTCTTCTGGATGACGTTTTCATCGGGGAAACCTCCCGTCGGTCAGTGAAGCGCAAGGGCTGGCGTGCGAGGGTGGAATCGGCCGCCGGCTCGCTTTCTGCGCGGCGGGCGCACGGCACGGGGAGTCGTCGTTTTGGAGGTGAGGGATGACGGCTCTGTTTCAGGA (double strand) [PmvfR 223-470 bp] | no binding
2 | TGGCGATGGGCCGACAGTGAACCCGGGGACCAGGTGTGACTGGGTATTCAGTTCGCATAAAATGTGATCTAGATCACATTTAAACGTTTGCTTACCCTCTAGGACGGGTATCGTACTAGGTGCATCAAACGCTGCGGTCTATTGTTAAGTGGGACTGAAATGTGCCTTTCCGGCACAACGCCAACTCTATAG (double strand) [PlasR 153-344 bp] | binds
3 | TGTGCGGTTGTGACAATTCCATGAAACGCCGACAGGCCGCCGCCATGGCCGGGTCCTCGAGCAAGCGCCACAGCGCCCCGCGCAACTCCTGCTCGCGCAACGGCACGCCCAGGCGCATCCCGCAGCCGAGCCGGACCAGCCGTTCGGCATTGTCGAACTGGTCGTGGGCACAGGGCAGCAGCACCTGCGGCACCCCCGCCGCCAAGGCTAGGCTCATGGCGCCGATACCGCCCGGATGGACCAGCCCGGCGCACGATGGCAGCAAGGCTCCCAGTGGCGCGTA (double strand) [PrhlR 11-293 bp] | no binding
4 | GCGCACGGCACGGGGAGTCGTCGTTTTGGAGGTGAGGGATGACGGCTCTGTTTCAGGATATTTTTATAATTATGTGAAAGAAGAGCTTATTTCAACGAAATATGTTTCATATTGCTCGTAAATTCGACGAAAAGAAAATCCGGATATTTACCGGTTATTTAACGTTAATACCAAGGGCCTAATACCAAAGTATTAACGCTGGCATGCCGGCATGTCGTGTTCGGTCGTGGAGCGAGCCGAGCCAGGAACGGTTCTAAGAAACGA (double strand) [PmvfR 17-280 bp] | no binding
5 | CCTGTCGGCGTTTCATGGAATTGTCACAACCGCACAGTATCGCTTGCGGTAAAGCGGCCCAGGTGGTCGAACGTTGTCATAGGGAGGGGGATGCTCGATGGCTGAAGGCTGCGTCCTGAACGGTGCTGGCATAACAGATAGGGTTGCCATGATTTTGCCGTATCGGCAAGGCTGCGCGCTTGACAGCGTCATACCCCGGGCCAATTCTGCTGTGATGCATTTTATCGATCAGGGCTTACTGCAATGAGGAATGACGGAGGCTTTTTGCTGTGGTGGGACGGTTTGCGTAGCGAGATG (double strand) [PrhlR 258-544 bp] | no binding
